Source: PMC11666773, “Development of mirror-image monobodies targeting the oncogenic BCR::ABL1 kinase” (Nature Communications, 2024)
Residue numbers refer to the chain shown, from its start. Names and notes keep the numbering of the source. Non-standard residues stand in square brackets, D forms with d. *: point of attachment. 5FAM = O=C1OC2(c3ccc(O)cc3Oc3cc(O)ccc32)c2ccc(C(=O)*)cc21

What was measured:
[1] = biological target: T1, D-Abl SH2 domain (synthetic mirror-image SH2 domain of human BCR::ABL1) (human, UniProt P00519-2 141-240, all residues in D-configuration); assay: ITC
T1 chain: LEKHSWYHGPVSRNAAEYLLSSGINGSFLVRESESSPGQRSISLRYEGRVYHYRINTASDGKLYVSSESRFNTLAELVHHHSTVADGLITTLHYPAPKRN

[2] = biological target: T2, biotinylated synthetic D-Abl SH2 domain (human, UniProt P00519-2 141-240, all residues in D-configuration; biotin (position not given)); assay: FACS; yeast surface display
T2 chain: T1 chain

[3] = biological target: T1, D-Abl SH2 domain (synthetic …); assay: ITC
[4] = biological target: D-Abl SH2 domain (synthetic mirror-image SH2 domain of human BCR::ABL1) (human) (UniProt P00519); assay: ITC; monobody in the syringe titrated to the SH2 domain, 20 mM HEPES pH 7.4, 150 mM NaCl, 0.5 mM TCEP-HCl, 25 °C, 1:1 binding model
[5] = biological target: T1, D-Abl SH2 domain (synthetic …); assay: ITC
[6] = biological target: T3, D-Abl SH2 domain (synthetic mirror-image SH2 domain of human BCR::ABL1) (human, UniProt P00519-2 141-240, all residues in D-configuration); assay: fluorescence polarisation; direct binding of the fluorescent D-pY peptide to D-Abl SH2 (Fig. S1); conditions not shown; conditions: both partners purified
T3 construct: Mirror-image protein; also called D-Bcr-Abl SH2; D-SH2
T3 sequence: T1 chain

[7] = biological target: the molecule itself; assay: crystal structure; L-DAM21 with D-Abl SH2 A198C; 0.16 M ammonium sulfate, 0.08 M sodium acetate pH 4.6, 20% PEG 4000, 20% glycerol; 100 K
[8] = biological target: T4, L-Abl SH2 domain (recombinant) (human); assay: ITC
T4 chain: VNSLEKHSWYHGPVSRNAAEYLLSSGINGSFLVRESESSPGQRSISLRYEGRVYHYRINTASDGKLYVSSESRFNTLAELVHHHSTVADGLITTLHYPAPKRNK

[9] = biological target: T4, L-Abl SH2 domain (recombinant); assay: ITC; monobody in the syringe titrated to the SH2 domain, 20 mM HEPES pH 7.4, 150 mM NaCl, 0.5 mM TCEP-HCl, 25 °C, 1:1 binding model

B1: L-monobody DAM28 (recombinant) (designed binder)
chain: MAASSVPTKLEVVAATPTSLLISWDAPAVTVDHYVITYGETGGNSPVQEFTVPGSKSTATISGLKPGVDYTITVYAYEYWEYEYSSYSPISINYRT
- Kd [1]: 58.9 nM

B2: L-monobody DAM26 (recombinant) (designed binder)
chain: B1 chain with Y79F, W80Y, E81S, Y82G, S86H, Y87F
- Kd [1]: 249 nM

B3: monobody DAM26 displayed on yeast (designed binder)
chain: B1 chain with Y79F, W80Y, E81S, Y82G, S86H, Y87F
- Kd [2]: 32 nM

B4: monobody DAM28 displayed on yeast (designed binder)
chain: B1 chain
- Kd [2]: 68 nM

B5: synthetic L-DAM27-XTEN (designed binder)
chain: ASSVPTKLEVVAATPTSLLISWDAPAVTVDHYVITYGETGGGGGSQEFEVPGSKSTATISGLKPGVDYTITVYAYEFYSGEYSHFSPISINYRTAEGPSTAEGPSTAEGPST
modifications: biotin at the N-terminus
- Kd [3]: 128 nM
- stoichiometry N [4]: 1

B6: recombinant L-DAM27-XTEN (designed binder)
chain: B5 chain
- Kd [3]: 97.6 nM
- stoichiometry N [4]: 1

B7: L-monobody DAM21 (recombinant) (designed binder)
chain: ASSVPTKLEVVAATPTSLLISWDAPAVTVDHYVITYGETGGNSPVQEFTVPGSKSTATISGLKPGVDYTITVYASDYYDGEISWYSPISINYRT
- Kd [5]: 11.9 nM

B8: monobody DAM21 displayed on yeast (designed binder)
chain: B7 chain
- Kd [2]: 20 nM

B9: D-pY peptide 5-carboxyfluoresceine-EPQpYEEIPIYLK-CONH2 in D-configuration (peptide)
peptide: 5FAM-[dE][dP][dQ][dpY][dE][dE][dI][dP][dI][dY][dL][dK]-NH2
notes: also called D-pYEEI peptide; D-phospho tyrosine (pY) peptide; source: synthetic peptide, bought: Peptide Synthetics (UK)
- Kd [6]: ~5 µM

B10: L-monobody DAM30.2 (recombinant) (designed binder)
chain: MAASSVPTKLEVVAATPTSLLISWDAPAVTVDHYVITYGETGAYVSGPQEFTVPGSKSTATISGLKPGVDYTITVYAYEFYSGEYSHFSPISINYRT
- Kd [1]: 189 nM

B11: D-Abl SH2 A198C (synthetic D-Abl SH2 domain not desulfurized, cysteine at position 198) (domain or fragment, human)
chain: T1 chain with A58C
modifications: all residues in D-configuration
notes: SH2 domain of human ABL1 (BCR::ABL1); Found as a disulfide-bridged (Cys198) dimer in both crystal structures; also called D-SH2
- binding result [7]: binds

B12: monobody DAM27 displayed on yeast (designed binder)
chain: ASSVPTKLEVVAATPTSLLISWDAPAVTVDHYVITYGETGGGGGSQEFEVPGSKSTATISGLKPGVDYTITVYAYEFYSGEYSHFSPISINYRT
- Kd [2]: 24 nM

B13: L-monobody DAM27 (recombinant) (designed binder)
chain: B12 chain
- Kd [5]: 72.3 nM

B14: L-monobody DAM30.1 (recombinant) (designed binder)
chain: MAASSVPTKLEVVAATPTSLLISWDAPAVTVDHYVITYGETGGGWYGQEFEVPGSKSTATISGLKPGVDYTITVYAYEFYSGEYSHFSPISINYRT
- Kd [1]: 90.3 nM

B15: synthetic D-DAM27-XTEN (mirror-image monobody) (designed binder)
chain: AASSVPTKLEVVAATPTSLLISWDAPAVTVDHYVITYGETGGGGGSQEFEVPGSKSTATISGLKPGVDYTITVYAYEFYSGEYSHFSPISINYRT
modifications: all residues in D-configuration; biotin at the N-terminus
- Kd [8]: 125 nM
- stoichiometry N [9]: 1
